Experimental data published in patent publication US20190142971A1, “FORMULATION AND DELIVERY OF MODIFIED NUCLEOSIDE, NUCLEOTIDE, AND NUCLEIC ACID COMPOSITIONS” (ModernaTX, Inc., priority 2013, published 2019).

Test system: non-human primates (cynomolgus monkey)
Experiment: Example 22: NHP hematology: neutrophils, reticulocytes, HGB, HCT, RBC (Tables 40-44)
Format: in vivo
Experimental: LNP formulations, shown in Table 33 (above), were administered to non-human primates (NHP) (cynomolgus monkey) (n=2) as intravenous injection (IV). The NHP were administered a single modified mRNA IV dose of 0.5 mg/kg, 0.05 mg/kg or 0.005 mg/kg of G-CSF or EPO in a dose volume of 0.5 mL/kg. The NHPs were bled before dosing with the modified mRNA LNP formulations to determine protein expression in the serum and a baseline complete blood count. After administration with the G-CSF modified mRNA formulation the NHP were bled at 8, 24, 48 and 72 hours to determined protein expression. After administration with the EPO modified mRNA formulation the NHP were bled at 8, 24, 48, 72 hours and 7 days to determined protein expression.
Samples collected from the NHPs after they were administered with G-CSF or EPO modified mRNA formulations were analyzed by ELISA to determine protein expression. Neutrophil and reticulocyte count was also determined pre-dose, 24 hours, 3 days, 7 days, 14 days and 18 days after administration of the modified G-CSF or EPO formulation.

[1] = 0.005 mg/kg, 14/18 days, Female NHP
[2] = 0.005 mg/kg, 14/18 days, Male NHP
[3] = 0.005 mg/kg, 24 hours, Female NHP
[4] = 0.005 mg/kg, 24 hours, Male NHP
[5] = 0.005 mg/kg, 3 days, Female NHP
[6] = 0.005 mg/kg, 7 days, Female NHP
[7] = 0.005 mg/kg, Pre-dose, Female NHP
[8] = 0.005 mg/kg, Pre-dose, Male NHP
[9] = 0.05 mg/kg, 14/18 days, Female NHP

B1: EPO: modified mRNA encoding human erythropoietin, SEQ ID NO: 7, Cap1, fully modified with 5-methylcytosine and pseudouridine; LNP NPA-060-1 in Examples 17-22 (nucleic acid)
chain: GGGAAAUAAGAGAGAAAAGAAGAGUAAGAAGAAAUAUAAGAGCCACCAUGGGAGUGCACGAGUGUCCCGCGUGGUUGUGGUUGCUGCUGUCGCUCUUGAGCCUCCCACUGGGACUGCCUGUGCUGGGGGCACCACCCAGAUUGAUCUGCGACUCACGGGUACUUGAGAGGUACCUUCUUGAAGCCAAAGAAGCCGAAAACAUCACAACCGGAUGCGCCGAGCACUGCUCCCUCAAUGAGAACAUUACUGUACCGGAUACAAAGGUCAAUUUCUAUGCAUGGAAGAGAAUGGAAGUAGGACAGCAGGCCGUCGAAGUGUGGCAGGGGCUCGCGCUUUUGUCGGAGGCGGUGUUGCGGGGUCAGGCCCUCCUCGUCAACUCAUCACAGCCGUGGGAGCCCCUCCAACUUCAUGUCGAUAAAGCGGUGUCGGGGCUCCGCAGCUUGACGACGUUGCUUCGGGCUCUGGGCGCACAAAAGGAGGCUAUUUCGCCGCCUGACGCGGCCUCCGCGGCACCCCUCCGAACGAUCACCGCGGACACGUUUAGGAAGCUUUUUAGAGUGUACAGCAAUUUCCUCCGCGGAAAGCUGAAAUUGUAUACUGGUGAAGCGUGUAGGACAGGGGAUCGCUGAUAAGCUGCCUUCUGCGGGGCUUGCCUUCUGGCCAUGCCCUUCUUCUCUCCCUUGCACCUGUACCUCUUGGUCUUUGAAUAAAGCCUGAGUAGGAAG
modifications: Cap1, 5-methylcytosine, pseudouridine
Female NHP HGB (0.005 mg/kg IV, 14/18 days): 129 g/L | Female NHP Neutrophils (0.005 mg/kg IV, 14/18 days): 2.54 10^9/L | Male NHP HGB (0.005 mg/kg IV, 14/18 days): 128 g/L | Male NHP Neutrophils (0.005 mg/kg IV, 14/18 days): 1.52 10^9/L | Female NHP HGB (0.005 mg/kg IV, 24 hours): 128 g/L | Female NHP Neutrophils (0.005 mg/kg IV, 24 hours): 2.59 10^9/L | Male NHP HGB (0.005 mg/kg IV, 24 hours): 122 g/L | Male NHP Neutrophils (0.005 mg/kg IV, 24 hours): 5.37 10^9/L | Female NHP HGB (0.005 mg/kg IV, 3 days): 130 g/L | Female NHP Neutrophils (0.005 mg/kg IV, 3 days): 2.83 10^9/L | Male NHP HGB (0.005 mg/kg IV, 3 days): 125 g/L | Male NHP Neutrophils (0.005 mg/kg IV, 3 days): 6.08 10^9/L | Female NHP HGB (0.005 mg/kg IV, 7 days): 127 g/L | Female NHP Neutrophils (0.005 mg/kg IV, 7 days): 2.23 10^9/L | Male NHP HGB (0.005 mg/kg IV, 7 days): 119 g/L | Male NHP Neutrophils (0.005 mg/kg IV, 7 days): 3.51 10^9/L | Female NHP HGB (0.005 mg/kg IV, Pre-dose): 136 g/L | Female NHP Neutrophils (0.005 mg/kg IV, Pre-dose): 5.96 10^9/L | Male NHP HGB (0.005 mg/kg IV, Pre-dose): 132 g/L | Male NHP Neutrophils (0.005 mg/kg IV, Pre-dose): 5.46 10^9/L | HCT [1]: 0.42 L/L | RBC [1]: 5.36 10^12/L | HCT [2]: 0.42 L/L | RBC [2]: 5.67 10^12/L | HCT [3]: 0.43 L/L | RBC [3]: 5.35 10^12/L | HCT [4]: 0.42 L/L | RBC [4]: 5.63 10^12/L | HCT [5]: 0.42 L/L | RBC [5]: 5.42 10^12/L | HCT (0.005 mg/kg, 3 days, Male NHP): 0.44 L/L | RBC (0.005 mg/kg, 3 days, Male NHP): 5.77 10^12/L | HCT [6]: 0.42 L/L | RBC [6]: 5.35 10^12/L | HCT (0.005 mg/kg, 7 days, Male NHP): 0.41 L/L | RBC (0.005 mg/kg, 7 days, Male NHP): 5.49 10^12/L | HCT [7]: 0.45 L/L | RBC [7]: 5.72 10^12/L | HCT [8]: 0.48 L/L | RBC [8]: 6.15 10^12/L | Female NHP HGB (0.05 mg/kg IV, 14/18 days): 129 g/L | Female NHP Neutrophils (0.05 mg/kg IV, 14/18 days): 1.27 10^9/L | Male NHP HGB (0.05 mg/kg IV, 14/18 days): 133 g/L | Male NHP Neutrophils (0.05 mg/kg IV, 14/18 days): 1.53 10^9/L | Female NHP HGB (0.05 mg/kg IV, 24 hours): 116 g/L | Female NHP Neutrophils (0.05 mg/kg IV, 24 hours): 2.63 10^9/L | Male NHP HGB (0.05 mg/kg IV, 24 hours): 123 g/L | Male NHP Neutrophils (0.05 mg/kg IV, 24 hours): 2.51 10^9/L | Female NHP HGB (0.05 mg/kg IV, 3 days): 120 g/L | Female NHP Neutrophils (0.05 mg/kg IV, 3 days): 4.08 10^9/L | Male NHP HGB (0.05 mg/kg IV, 3 days): 116 g/L | Male NHP Neutrophils (0.05 mg/kg IV, 3 days): 1.73 10^9/L | Female NHP HGB (0.05 mg/kg IV, 7 days): 121 g/L | Female NHP Neutrophils (0.05 mg/kg IV, 7 days): 2.77 10^9/L | Male NHP HGB (0.05 mg/kg IV, 7 days): 126 g/L | Male NHP Neutrophils (0.05 mg/kg IV, 7 days): 1.23 10^9/L | Female NHP HGB (0.05 mg/kg IV, Pre-dose): 133 g/L | Female NHP Neutrophils (0.05 mg/kg IV, Pre-dose): 2.15 10^9/L | Male NHP HGB (0.05 mg/kg IV, Pre-dose): 133 g/L | Male NHP Neutrophils (0.05 mg/kg IV, Pre-dose): 0.97 10^9/L | HCT [9]: 0.43 L/L | RBC [9]: 5.57 10^12/L
